These results are taken from patent publication US20110150771A1.

Experiment in all cases: cell-based or functional assay
Test [1] has as its target DEN2 E protein of chimeric WN/DEN2 virus, V-10 seed (E-K122I/K mixed, E-S186F, E-N203D) (Dengue virus type 2, strain 16681 (in a West Nile NY99 backbone)) (UniProt P29990).
Test [2] deals with DEN2 E protein of chimeric WN/DEN2 virus, C6-1/V-2 seed (E-N203D) (Dengue virus type 2, strain 16681 (in a West Nile NY99 backbone)) (UniProt P29990).
For test [3], the target named is DEN2 E protein of chimeric WN/DEN2 virus, C6-1 seed (Dengue virus type 2, strain 16681 (in a West Nile NY99 backbone)) (UniProt P29990).
Test [4] addresses DEN2 E protein of chimeric WN/DEN2 virus, V-3 seed (E-N203D; NS2A-I49T and NS2A-F94L elsewhere in the virus) (Dengue virus type 2, strain 16681 (in a West Nile NY99 backbone)) (UniProt P29990).
Test [5] deals with E protein of wild type West Nile virus NY99 (West Nile virus, strain NY99) (UniProt Q9Q6P4). The note with it: scale: greatest antibody dilution that decreased plaques by at least 50%.

As for “WNV E protein-specific monoclonal antibody (MAb3.67G)”, the PRNT50 Titer is < 1280 in test [1]; < 1280 in test [2]; < 1280 in test [3]; < 1280 in test [4]; > 41000 in test [5].
For “DENV-2 E protein-specific monoclonal antibody (MAb3H5)”, the PRNT50 Titer in test [1] was > 2560; in test [2], > 2560; in test [3], > 2560; in test [4], > 2560; in test [5] it was < 80.
